From paper PMC12730240 (Biosensors, 2025)

Target: T1, Shiga toxin 2 (E. coli (Shiga toxin-producing, STEC))
T1 construct: source: similarly expressed and purified as previously described [29]; copies: + 5
Experiment: pull-down
Conditions: both partners purified

B1: nanobody G1 (NG1), biotinylated (VHH)
VHH: QVQLVESGGGLVQPGESLRLSCVASASTFSTSLMGWVRQAPGKGLESVAEVRTTGGTFYAKSVAGRFTISRDNAKNTLYLQMNSLKAEDTGVYYCTAGAGPIATRYRGQGTQVTVSS
notes: also called B2; source: E. coli SHuffle T7, purified (Ni-NTA IMAC)
- binding result: binds
